Experimental data from patent US7910550B2, “Human kunitz-type inhibitor with enhanced antifibrinolytic activity” (STC.UNM, priority 2004, dated 2011).

What was measured:
[1] = tested on: HT-1080 cells; assay: Western blot of cell extracts (Bax, Bcl-2, cleaved caspase-9, cleaved caspase-3); type: cell-based, human; details: 1 μM, 48 hours; for activated caspase 9 and activated caspase 3 (immunoblot): vs vehicle-treated cells
Method: Cell extracts were analyzed for the pro-apoptotic Bax, the anti-apoptotic Bcl-2, cleaved caspase-9 and cleaved caspase-3 by immunoblotting techniques. Approximately, 1×10^6 HT-1080 cells were grown to confluence in 6-well plates and treated with recombinant proteins and vehicle as described above. Both floating and adherent cells were harvested and washed twice with cold PBS. The cells were lysed by sonication in 500 μl of lysis buffer containing of 125 mM Tris-HCl (pH 6.8), 2% SDS, 10% glycerol, 50 mM sodium phosphate, 1 mM PMSF and protease inhibitor cocktail. The lysate was kept on ice for about 10 minutes, centrifuged for 15 minutes at 10,000×g at 4° C., and the supernatant recovered. The supernatants were boiled for 3 min and 50 μg of lysate protein subjected to SDS-PAGE in 4-20% polyacrylamide gradient gels. […] The nitrocellulose membranes were then probed with specific antibodies dissolved in fresh blocking buffer, and immunoreactive proteins were identified using HRP-conjugated secondary antibodies and a chemiluminescent reagent system essentially as described in Kempiah et al., Mol. Cancer, 6:20, 2007. Separate blots were treated with mouse monoclonal anti-α-tubulin antibody in order to verify equal loading of lysate proteins onto the gel.

[2] = tested on: HT-1080 cells; assay: FACS analysis of apoptosis with annexin V/propidium iodide; type: cell-based, human; details: 1 μM, 48 hours; for cells in a late apoptotic stage (annexin V and PI positive): vehicle 4%; for early apoptotic cells (annexin V-FITC positive): vehicle 16%
Method: All cell lines were maintained in Dulbecco's minimal essential medium (DMEM), supplemented with heat-inactivated 10% fetal bovine serum and penicillin-streptomycin. The cells were cultured either in 6- or 12-well plates at 37° C. in a humidified atmosphere containing 6% CO2. At confluence, the cells were treated with fresh medium containing either wild-type TFPI-2, R24K KD1, or R24Q KD1. Cells were treated in duplicate with purified proteins at concentrations ranging from 0.5 μM to 10 μM for different time intervals. One set were also treated with PBS to serve as a control. The Limulus Amebocyte Lysate (LAL) assay was performed on each protein preparation to determine the presence of any endotoxin/LPS, and only trace amounts of endotoxin (<0.5 ng/L) were detected in each protein preparation.
To assess the degree of apoptosis between the various treatments, cells were grown to confluence in 6 well plates and treated with either proteins or vehicle as described earlier. For annexin V staining, approximately 1.2×10^6 cells were harvested with PBS containing 1 mM EDTA and washed twice gently with cold PBS. The cells were suspended in 100 μl of cold binding buffer (10 mM Hepes (pH 7.4), 140 mM NaCl, 2.5 mM CaCl2), and subsequently incubated at room temperature in the dark for 25 minutes with 5 μl of FITC-conjugated annexin V and 10 μl of propidium iodide (50 μg/ml stock). The cells were then washed in 500 μl of binding buffer to remove unbound reagents, centrifuged at 900×g for 5 minutes, and resuspended in 1 ml of cold binding buffer. The labeled cells were then analyzed using a FACSCALIBUR flow cytometer (Becton Dickinson, San Jose, Calif.) and the data analyzed using […] software.

[3] = tested on: HT-1080 cells; assay: DNA fragmentation analysis by agarose gel electrophoresis; type: cell-based, human; details: 48 hours
Method: Cells were grown to confluence in 6-well plates and treated with either wild-type TFPI-2 or R24K KD1 at the same concentrations described above. After incubation for either 24 or 48 hours at 37° C., the cells were harvested and washed twice with PBS. The DNA was then extracted using the DNEASY tissue kit (Qiagen, Valencia, Calif.) accordingly to the manufacturer's instructions. DNA extracts were electrophoresed in 1.8% agarose gels at 100 V for 45 minutes and visualized with ethidium bromide staining under UV illumination.

[4] = tested on: human colorectal cancer cell line (Colo-205); assay: Caspase activation in Colo-205 cells; type: cell-based; details: 48 hour exposure, 1 μM

| Molecule | Bax and Bcl-2 protein expression (immunoblot) [1] | activated caspase 9 and activated caspase 3 (immunoblot) [1] | cells in a late apoptotic stage (annexin V and PI positive) [2] [%] | early apoptotic cells (annexin V-FITC positive) [2] [%] | DNA fragmentation [3] | caspase activation [4] |
| --- | --- | --- | --- | --- | --- | --- |
| TFPI-2: Human tissue factor pathway inhibitor-2, 213 amino acid polypeptide with three tandem Kunitz-type domains (SEQ ID NO:1) (protein, listed as Homo sapiens) DAAQEPTGNNAEICLLPLDYGPCRALLLRYYYDRYTQSCRQFLYGGCEGNANNFYTWEACDDACWRIEKVPKVCRLQVSVDDQCEGSTEKYFFNLSSMTCEKFFSGGCHRNRIENRFPDEATCMGFCAPKKIPSFCYSPKDEGLCSANVTRYYFNPRYRTCDAFTYTGCGGNDNNFVSREDCKRACAKALKKKKKMPKLRFASRIRKIRKKQF | increased expression of the pro-apoptotic protein, Bax, and decreased expression of the anti-apoptotic protein, Bcl-2 | activation of caspase-9 and caspase-3 | ~43 | 55 | ladder pattern typically associated with DNA fragmentation and apoptosis | – |
| R24K KD1: KD1 with lysine in place of arginine at position 24 (SEQ ID NO:3) (protein, mutated active domain) DAAQEPTGNNAEICLLPLDYGPCKALLLRYYYDRYTQSCRQFLYGGCEGNANNFYTWEACDDACWRIEKVPKV | increased expression of the pro-apoptotic protein, Bax, and decreased expression of the anti-apoptotic protein, Bcl-2 | activation of caspase-9 and caspase-3 | ~58 | 41 | ladder pattern typically associated with DNA fragmentation and apoptosis | caspase activation |
